From publication PMC3223204, “Implantation Serine Proteinase 1 Exhibits Mixed Substrate Specificity that Silences Signaling via Proteinase-Activated Receptors” (PLoS ONE, 2011) come the findings set out here.

The target in the test is T1, rat PAR2 (Rattus norvegicus, UniProt Q63645).
T1 construct: expressed in transfected cells; host or cells: KNRK (Kirsten virus-transformed normal rat kidney) cells
T1 sequence (Q63645 26-397): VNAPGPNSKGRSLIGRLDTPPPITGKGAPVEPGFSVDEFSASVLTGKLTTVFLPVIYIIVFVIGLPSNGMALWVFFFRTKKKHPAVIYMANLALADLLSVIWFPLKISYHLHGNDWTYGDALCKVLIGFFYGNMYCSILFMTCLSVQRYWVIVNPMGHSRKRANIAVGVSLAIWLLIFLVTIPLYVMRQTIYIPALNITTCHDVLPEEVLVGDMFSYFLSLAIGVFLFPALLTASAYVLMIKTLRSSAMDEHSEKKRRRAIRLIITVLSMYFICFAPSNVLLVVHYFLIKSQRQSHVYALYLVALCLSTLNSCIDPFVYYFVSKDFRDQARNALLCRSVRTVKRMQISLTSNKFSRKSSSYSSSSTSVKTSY
In words: Calcium signaling assay, PAR2 activation/disarming in KNRK cells. In kind it is cell-based. The text has this: The Kirsten virus-transformed normal rat kidney (KNRK) epithelial cell line expressing wild-type rat PAR2 (KNRKrPAR2), validated previously for studies of receptor activation was used to evaluate the PAR2-regulating properties of the ISP1 by the methods described previously. Human embryonic kidney cells (HEK293) that express the SV40 T-antigen were kindly provided by Dr. Jonathan Lytton, University of Calgary, Faculty of Medicine, Calgary (Alberta) Canada. The human HEK293 cells, that constitutively express both PAR1 and PAR2, were grown under similar conditions as described for the KNRK cells, but in the absence of geneticin, as outlined for the PAR-mediated calcium signaling procedure described previously. All cells were sub-cultured by dissociation in an isotonic EDTA/saline solution, pH 7.4, without the use of trypsin, to avoid cleavage of PARs.
Cell lines (grown to about 85% confluence and disaggregated with calcium-free isotonic phosphate-buffered saline containing 0.2 mM EDTA) and rat platelets (harvested from platelet-rich anti-coagulated plasma) were prepared and used as previously described. Cells were incubated for 25 min at room temperature with Fluo-3 acetoxymethyl ester (final concentration, 22 µM) along with 0.4 mM sulfinpyrazone. Cells were washed twice by centrifugation (using the following buffer without calcium) and resuspended in the calcium signaling buffer: 150 mM NaCl, 3 mM KCl, 1.5 mM CaCl2, 20 mM HEPES, 10 mM dextrose, and 0.25 mM sulfinpyrazone, pH 7.4.
Fluorescence was measured at 24 °C with an excitation wavelength of 480 nm and an emission recorded at 530 nm using an Aminco Bowman Series 2 Luminescence spectrometer (ThermoSpectronic Model FA354, Spectronic Unicam, Rochester, NY). The fluorescence signals caused by the addition of test agonists (trypsin, PAR-activating peptide or rISP1, added to 2 ml of a cell suspension of ~3 x 10^5 cells/ml) were compared with the fluorescence peak height yielded by replicate cell suspensions treated with 2 µM ionophore A23187. This concentration of A23187 was at the plateau of its concentration-response curve for a fluorescence response in Fluo-3-loaded cultured cells. Under these conditions, the calculated values for intracellular calcium in the HEK and KNRK cells were [picture] […]
Previous work has shown that the fluorescence response of a cell preparation, as a percentage relative to the signal generated by 2 µM A23187, is a valid reference standard for the comparative determination of calcium signals for all PAR agonists. The cellular calcium response was therefore recorded as a percentage of the response generated by 2 µM ionophore A23187 [6]. […]
Receptor activation was monitored as an enzyme-stimulated increase in fluorescence emission (E530). […]

B1: ISP1: recombinant implantation serine proteinase 1 expressed in Pichia pastoris, also known as Mouse Prss28 (protein, UniProt Q924N9 27-274, looked up)
Serine protease 28: KPVGIVGGQRTPPGKWPWQVSLRMYSYEVNSWVHICGGSIIHPQWILTAAHCIQSQDADPAVYRVQVGEVYLYKEQELLNISRIIIHPDYNDVSKRFDLALMQLTALLVTSTNVSPVSLPKDSSTFDSTDQCWLVGWGNLLQRVPLQPPYQLHEVKIPIQDNKSCKRAYRKKSSDEHKAVAIFDDMLCAGTSGRGPCFGDSGGPLVCWKSNKWIQVGVVSKGIDCSNNLPSIFSRVQSSLAWIHQHIQ
modifications: recombinant, Pichia pastoris-expressed
notes: recombinant implantation serine proteinase 1 expressed in Pichia pastoris, also known as Mouse Prss28
With B1, the “Cellular response to PAR2-activating peptide after ISP1 pre-treatment” value (SLIGRL-NH2 (10 µM), concentration-dependent) is reported as “diminished”. Further, the “Activation of a calcium signal via PAR2” value (enzyme alone) was “did not activate a calcium signal”. For the same molecule, the “residual PAR2 activity triggered by trypsin” value (pre-treatment with 5 Units/ml ISP1, then trypsin (1.0 units/ml)) is recorded as about 80%. In addition, the “residual PAR2 activity (% of control)” value (pre-treatment with 20 units ISP1/ml, then trypsin (1.0 units/ml)) was about 40%.
